Test [1] addresses T1, human serum albumin (human, UniProt P02768 25-609).
T1 construct: Amine-coupled to a CM5 chip, coupled to Sepharose, or loaded in solution onto the ABD columns; also called HSA
In words: BIAcore 2000, HSA immobilised on CM5 chip, 40-220 nM ABDwt.

Test [2] addresses T1, human serum albumin. In words: Biacore 2000, HSA immobilised on a CM5 chip, analyte at 200 nM, 20 µl/min. For orientation: SPR reads the build-up and loss of mass on a sensor chip optically.
The target of test [3] is T1, human serum albumin. Description: BIAcore 2000, HSA immobilised on CM5 chip, 200-600 nM ABDmut.

B1: wild type Albumin Binding Protein (ABD) (other)
chain: MKAIFVLNAQHDEAVDANSLAEAKVLANRELDKYGVSDYYKNLINNAKTVEGVKALIDEILAALP
notes: Expressed in E. coli from pTrpABDT1T2; also called ABDwt; unmutated protein
One may read the koff as the first-order rate constant of dissociation. By kon is commonly meant the rate constant with which the complex forms. Higher therefore signals faster complex formation. In the case of B1, in the test with human serum albumin [1], the Ka was 6.9e+07 M⁻¹, the koff came to 0.0013 s⁻¹ and the on-rate (kon) is 90000 M⁻¹ s⁻¹.

B2: ABDmut22-25-26 (designed binder)
chain: MKAIFVLNAQHDEAVDANSLAAAKAAALRELDKYGVSDYYKDLIDKAKTVEGVKALIDEILAALP
notes: also called 22-25-26 A; triple mutant of ABDmut
Turning to B2, in the test with human serum albumin [2], the binding result is reported as “binds”.

B3: ABDmut54-57-58 (designed binder)
chain: MKAIFVLNAQHDEAVDANSLAEAKVLALRELDKYGVSDYYKDLIDKAKTVEGVAALAAEILAALP
notes: also called 54-57-58 A; ABDmutS4-57-58
Consider B3, for which the binding result with human serum albumin [2] is recorded as “binds”.

B4: ABDmut (Asn28Leu, Asn42Asp, Asn45Asp, Asn46Lys variant of ABD) (designed binder)
chain: MKAIFVLNAQHDEAVDANSLAEAKVLALRELDKYGVSDYYKDLIDKAKTVEGVKALIDEILAALP
notes: Expressed in E. coli from pTrpABDmutT1T2; also called ABDstab; mutated ABD
In the test with human serum albumin [3], B4 came in with a Ka of 1.5e+07 M⁻¹, a koff of 0.0012 s⁻¹ and a kon of 18000 M⁻¹ s⁻¹.

The values above are taken from patent US20050100970A1 (Affibody, published 2005).
